Changes are numbered by the printed parent chain.
B1: E02(Fab) (Fab, V domains shown)
VH: QVQLLESGGGLVQPGRSLRLSCAASGFTFSSYGLHWVRQAPGKGLEWVAVISYDGSNKYYADSVKGRFTISRDNSKNTLYLQMNSLRAEDTAVYYCASTLQQLDAFDIWGQGTLVTVSS
VL: NFMLTQPHSVSESPGKTVTISCTRSSGSIASNYVQWYQQRPGTSPTIMIYEDNQRPSGVPDRFSGAIDSSSNSASLTISGLKTEDEADYYCQSYDSSSVVFGGGTKVTVL
notes: also called TPL0039_05_E02
B2: TPL0039_05_F04 IgG1 (LALA + YTE) (antibody, V domains shown)
VH: QVQLVESGGGVVQPGRSPRLSCAASGFTFSSYGMHWVRQAPGKGLEWVAVISYDGSNKYYADSVKGRFTISRDNSKNTLYLQMNSLRAEDTAVYYCAKDLEYSSSSWGQGTLVTVSS
VL: B1 VL with Y37F, T43S, I47T, M48V, N53D, A66S, D88T, Y90F, S98T
notes: also called F04(LALA + YTE); copies: 2 + 2
B3: TPL0039_05_B04 IgG1 (LALA + YTE) (antibody, V domains shown)
VH: EVQLLESGGGVVQPGRSLRLSCAASGFTFSSYGMHWVRQAPGKGLEWVAVISYDGSNKYYADSVKGRFTISRDNSKNTLYLQMNSLRAEDTAVYYCARVGENEAFDIWGQGTMVTVSS
VL: B1 VL with S31R, T43S, S44A, I47T, M48V, A66S, S98T, V107L
notes: also called B04(LALA + YTE); copies: 2 + 2
B4: TPL0039_05_G08 IgG1 (LALA + YTE) (antibody, V domains shown)
VH: EVQLVESGGGVVQPGRSLRLSCAASGFTFSSYGMHWVRQAPGKGLEWVAVISYDGSNKYYADSVKGRFTISRDNSKNTLYLQMNSLRAEDTAVYYCARTNYDSGDAFDIWGQGTLVTVSS
VL: B1 VL with T43S, I47T, M48V, A66S, S98T, V107L
notes: also called G08(LALA + YTE); copies: 2 + 2
B5: TPL0039_05_E02 IgG1 (LALA + YTE) (antibody, V domains shown)
VH: B1 VH
VL: B1 VL
notes: also called E02(LALA + YTE); copies: 2 + 2
B6: TPL0039_05_A03 IgG1 (LALA + YTE) (antibody, V domains shown)
VH: B1 VH with L5V, V12A, Q13K, A24V, L34M, L114M
VL: B1 VL with V18I, T43S, S44V, I47P, M48V, N53D, Q54R, A66S, V107I
notes: also called A03(LALA + YTE); copies: 2 + 2
B7: E02(LALA + YTE) human IgG1 (antibody, V domains shown)
VH: B1 VH
VL: B1 VL
notes: also called TPL0039_05_E02
B8: TPL0039_05_E02 Fab (Fab, V domains shown)
VH: B1 VH
VL: B1 VL
notes: also called Fab E02; source: Expi293F, transient expression, purified (anti-CH1 resin, desalted into PBS)
B9: TPL0039_05_B12 IgG1 (LALA + YTE) (antibody, V domains shown)
VH: B3 VH with L5V, R98G, V99W, G100T, N102G, E103D, M113L
VL: B1 VL with T43S, S44A, T46S, I47T, M48V, Q54R, A66S, S70A, V107I
notes: also called B12(LALA + YTE); copies: 2 + 2

Legend:
[1] = target: T1, myotoxin II from Bothrops asper (Bothrops asper, UniProt P24605); assay: BLI; […]) biosensors; Fab or IgG at 0, 1, 10 and 100 nM; 600 s association, 600 s dissociation; […]; 1:1 binding model, […]; settings: both partners purified
T1 construct: also called Mt; Lys49 PLA2-like toxin
T1 sequence (P24605 17-137): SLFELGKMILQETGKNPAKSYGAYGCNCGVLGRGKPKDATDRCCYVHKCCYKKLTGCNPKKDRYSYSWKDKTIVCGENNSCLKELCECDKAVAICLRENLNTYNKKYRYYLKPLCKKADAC

[2] = target: T2, myotoxin II from Bothrops asper (Bothrops asper, UniProt P24605); assay: BLI; […]) biosensors ([…] (0, 1, 10, 100 nM; […]; settings: both partners purified
T2 construct: also called Mt; M2; source: purified from Bothrops asper venom (CM-Sephadex C25, RP-HPLC), biotinylated
T2 sequence (P24605 17-137): as above

Binder | Kd [1] [pM] | Kd [2] [pM] | koff [2] [s⁻¹] | kon [2] [M⁻¹ s⁻¹]
B1 | 2400 | – | – | –
B2 | – | 18.1 | 1.31e-05 | 723000
B3 | – | 75.8 | 6.53e-05 | 861000
B4 | – | < 1 | < 1e-07 | 245000
B5 | – | – | < 1e-07 | 491000
B6 | – | < 1 | < 1e-07 | 648000
B7 | < 1 | – | – | –
B8 | – | – | 0.000872 | 360000
B9 | – | < 1 | < 1e-07 | 685000
